From the DeepSol protein solubility set

Assay: soluble on expression in E. coli; label from the status in PepcDB or PDB records

Sequence | soluble on expression in E. coli
MGSDKIHHHHHHMTSALSEAGGYPPEGQGAYFLCDIFDAMPKNDLASMEHPLFSLSTRPDRRILNYEHNGAEITVTPSVKGLATIHDKDILIFCVSQLMAALNAGRQVSRVLHLTAHDLLVACNRETSGDAYRRLRESFERLAGTRITTNITTGGQEITTGFGLIESWEIVRKARGGRMVSVAVTLSDWLYRAVLSKSVLTLSRDYFRLRKPLERRIYELARKHCGRQDSWQISVETLLKKSGSASPRRVFRKMVRDMIESQPLPDYEMAELEGDIIRFSQKAAVVDVPPPVISEAARDEARRLMPGVDVHALEADWRATWARTGAPRLRKPDAAFVGWVRKRMND | not soluble
MGSDKIHHHHHHMTTDHPSAYCFFQDLAPRPPLDAAFDRDYLLYAIRGALRVSVAGESWLLPPSFAAWLPANTPISVDIDKPVTTCSVLARPGLCTGLPEKACVFQMSPMARQMIHYCKDWGPDAAHPAQAEGFFLALLHVCADLAVKSVDVKRPTATDPVLRKAIDITEAHLAQAITANEIARKVNLSERSMQRHFQMDVGMTWSQTLTQLRMIHAVALLAEGKLSIIQIAGYTGFQSLSAFNRAFRTFAATTPTKFRKALLD | not soluble
MGSDKIHHHHHHMTTDLEQQFEFLTEIERLREVERQNLLLDGSRVENSAEHSWHLALYALVFAPYAPSDVSITRVIEMLLLHDIVEIDVGDHPIDEPTDWEAVAQAEDRAQRRIFGLLPEAQGHRLQALWQEFEAAHTADARFAKSLDYCQPIFQTLCAVSPPADHLRVVRENLTTGRATSLRERFPEAYAAACSLIDGQTVSDPDFAARLAFLSEADRLKSVLRASRIASGTRYENSAEHSWHIMLYGWILAPHSLSEVDVSRVLKMLLLHDLVEIDAGDVPIHSNLDAAALRQIEETEKAAAERIFGLLPDAQAKDCLMIWQEFEAAQSADAVFAKSIDRVQPVLLNIATGGGSWVAYDVTLPQLETRVGVKIARGAPKVWDHVRALLLPWFTAQGRL | not soluble
MGSDKIHHHHHHMTTLALTGDSILQRRLLSTSDPVIKPLFDLIRGCDAAFTNLEVLPNDYRGDPAFDSGGSHFGAPSWVLDDLVEAGFGMFSTATNHTLDYSISGLEYGLDQLDKRGLCHAGAGRHLEEARRAAYLTTPNAAIGMVACGSTYTKGQEAARQTAAMQGRPGLNPLWPDSTYEVTAEQMAVVKEMAEGLGLEKFRQIRISTGFAFEAPEGIFPFNGMNFRVGEQTRHVRHPNPKDLAAIIRWVEEAKLASDIALVSIHAHEHADEKDQPADFIVEFAHAVIDAGADLVVGHGPHLLRGMEIYKGKPIFYSLGNFIGQNEMVRQLPGESYDRFHVDDRLTPTQLYKQRTLDDQKGFPSDERYWQTVVPICHFEGDGLVDVEIHPVSLGLGEQRHRRGRPRLAHGAEAESILNRFSSLSYEFGSTLEVGDTCANAVL | not soluble
MGSDKIHHHHHHMTTRVIALDLDGTLLTSKKTILPASLEALARAREAGYQVIVVTGRHHVAIHPFYQALALDTPAICCNGTYLYDYHAKKVLAADPMPVEQAVSLTAMLAKQQIHGLAYVDDAMLYEHPTGHVIRTRNWAQALPEDQRPVFAQVDSLAQAVREVNAVWKFALTDDDIPRLQRFAQQVGETLGLECEWSWHDQVDIARAGNSKGKRLAQWVADQGLSMQDVMAFGDNYNDLSMLEAAGTGVAMGNAVDEVKARANIVIGDNESTSIAEFIYRQLL | not soluble
MGSDKIHHHHHHMTTSSVRYPQRVRNELRFRELIVLRVERISAGFQRIVLGGEALDGFISLGFDDHTKVFFPEPGCRFTPPTVTEEGIIWGEGVRPVSRDYTPLYDEARRELALDFFIHDGGVASRWAMEAREGDTLTIGGPRGSLVVPEEYACQVYVCDESGMPALRRRLESLSRLPVRPAVTALVSIQDAAYRDYLAHLTDITVEYVVGGDEQAMQTRLSQLTIPESDYFIWITGEGKTVKRLSQCFEKGFDPHLVRAAAYWHRK | not soluble
MGSDKIHHHHHHMTVELLNEPLSRYPAFDTADPEELRQALSSVYGAKLVEGPIAADFHARSNFVQLDDIALAFGVGTGSIAVEFPEGECARLQIALSGQFTTRSGGTSTAINARQAGIISPGRNARTEYGQNYSFTLLRVSTSALERKLTTLLGCKPKASLEFEPAANNEAPQVVNLRRMLCFLANQLNCSPLPPVVLAELQEAITLLFLSAFRHNYSRQLERESHGIAPKHVRQVEEYIEANWMRPITIEKLTALTGISSRGIFKAFQRSRGYSPMAFAKRVRLQHAHNLLSDGATPTTVTAAALSCGFSNLGHFARDYRDMFGEKPSETLQRARP | not soluble
MGSDKIHHHHHHMTVVDDEKPAQAASGRFAAGEDPAKRDQILDGAKRAFMKHGFDAASMNDVTREAGVSKGTIYVYFQSKEDLFAALINNQKQKFAASMRDILAEETDLHMALRRYALAFTNYILTSEMIPAMRMLLAVQDRMPHLCQSFMRSGPENVRTVLEDYLEVQVKAGRLDIADTELAARQYIELATGAYFKKRLFGEIEVPPPQAEIDYIIDNALHIFLLAYDRKAENGPEAQRAN | not soluble
MGSDKIHHHHHHMTWGCHHLIKKVDASFSLGPISFTLEPGTVTALVGDNGSGKSTFFRLWMDLIKANQGTWERKEGWKEDTAYVPQQLIGIEAFTLEELAYLYEGMYVKWDQKTFERLVESFSLPMKKPLHSLSVGMQKKALFSMAIARKPNLFLLDEPFAGVDMDGQEQMKDELIRYLTGHEQATVLFATHSAQEVKELADYLLVLHQGQMLGFYEKDRLLSSWGRFWLEGNASAIKNEENVVSMKIAGTRIEIITSDALRFEEQIAAAALEKVEAQPLELHEIVRLLKKRNVSVS | not soluble
MGSDKIHHHHHHMTYKVLHVGAGGFGERWCDTFLPSNNSDGTIEVVGLVDIDARALEIGRKHLGLKAKQCFTSAAQAFKAVDADFCTIVIPPALHEGIVDLALERGMHILSEKPIAATMEASVRIADKVRVAGRKMAVTMSHRFDQDKSTLRALVSDEALGRVNTVSCRFAGDYRAYDSWGRFRHEMIHPMLIEGAVHHLDIMADLAGAPCTSIYARSWKPEWAEYKGETDVMVLMDFANGAHGVYEGSSAQATGLNDWTFEYVRVEAASGTAILDHREVEVFHRDPKRIYQKNRHGKGQQVSLLGGKKWKNSLLIEQFCHWLDGGPPMATNVEDNLQSVALIFSAIESARLGQPVKVQEFLQSFRKSASIETQ | not soluble
MGSDKIHHHHHHMVDTHAHLHFHQFDDDRNAVISSFEENNIEFVVNVGVNLEDSKKSLDLSKTSDRIFCSVGVHPHDAKEVPEDFIEHLEKFAKDEKVVAIGETGLDFFRNISPAEVQKRVFVEQIELAGKLNLPLVVHIRDAYSEAYEILRTESLPEKRGVIHAFSSDYEWAKKFIDLGFLLGIGGPVTYPKNEALREVVKRVGLEYIVLETDCPFLPPQPFRGKRNEPKYLKYVVETISQVLGVPEAKVDEATTENARRIFLEVKE | soluble
MGSDKIHHHHHHMVIGQKVLLARIPKMGDNYSTYLLDIEGTVCPISFVKETLFPYFTNKVPQLVQQDTRDSPVSNILSQFHIDNKEQLQAHILELVAKDVKDPILKQLQGYVWAHGYESGQIKAPVYADAIDFIKRKKRVFIYSSGSVKAQKLLFGYVQDPNAPAHDSLDLNSYIDGYFDINTSGKKTETQSYANILRDIGAKASEVLFLSDNPLELDAAAGVGIATGLASRPGNAPVPDGQKYQVYKNFETL | soluble
MGSDKIHHHHHHMVILVNPSILESSFIPDRLVARDGEIERIMETVIKPTKNGITTNLILYGDSGTGKTVTMRYLAREIRDPQVVYVNAIAYRYVKNVLIDFLSKFGIIVPERSSYASLFTRIEGLLRNQGKNVILVIDEAANILKGDYDGLYYLFRSKDSFDVNISTIFVVMEDPAILFDAKIRKSYGIFSEIKFRRYTKGEIYQIVMNRAVQSLTGEGYDEDVLDYIAEVSAEYGSARVGIDILAKAAHIAEYRRSPKISFDDVRAARSMISPFVTESKLASMDYEDLMVLLSICRCLSASRFTDVDCISRNLSVISEQYGKKDINLYDRIKRLENNGIISSSIEGQGRGEGVKKVISIYDIPVSVLTEKIENLLSA | not soluble
MGSDKIHHHHHHMVKTARRRGDDAVRGPGGVLVLGAASWNRMIHVETLPQGASATIFDARETQGAGSTGVGKAMGLAALGYQPTLHCALGRDDHGAQVIAACAGRGISLIVDEHDAATPHHLNIMDQLGGRYSLFLSNGAPDPPINEPRIAEQIAAADTIFLSLCASSKKILHLLEGARAEILLDLHDYDGANPWYEDFIACADVIQLSDVAVADPGAVARRLLSGRAHQVVVTKAGKGAEIVTADTSIDVPPCPADMVDSNGAGDAFSVALWHAQRTGQSGLDAGGFAAAAAACAIESADLFPVNVSAADIAGRVRAHPQDHSTGTASR | not soluble
MGSDKIHHHHHHMVMMSKQLTAQAPVDPIVLGKMGSSYGIRGWLRVFSSTEDAESIFDYQPWFIQKAGQWQQVQLESWKHHNQDMIIKLKGVDDRDAANLLTNCEIVVDSSQLPQLEEGDYYWKDLMGCQVVTTEGYDLGKVVDMMETGSNDVLVIKANLKDAFGIKERLVPFLDGQVIKKVDLTTRSIEVDWDPGF | not soluble
MGSDKIHHHHHHMVMTVGDSRVGKSTVIKLLLEMYQIQGKRLKVYDHDNRDRFLAYKDLVCIEKIDFFNTRTDRIFNDLIVDSLDIILVDMPGQYLDKICQYIIQSELLGALAEYGWSLTFVQPISHRTDCIDYLSQIVQTATNNANYVVVKNYHFAPEFREYEQTMAKNLLMIGGTEIELTALHRNHYQAMEKAGIPYSQVCQDISMILFLRSYIYQWIKKFHDSVMDNDLAVKYLGLD | not soluble
MGSDKIHHHHHHMVNNMTDLTAQDAAWSTRDHLDDPVIGELRNRFGPDAFTVQATRTGIPVVWVKREQLLEVGDFLKKLPKPYVMLFDLHGMDERLRTHRDGLPAADFSVFYHLISIERNRDIMLKVALSENDLRVPTFTKLFPNANWYERETWEMFGIDIEGHPHLTRIMMPQTWEGHPLRKDYPARATEFDPFELTKAKQDLEMEALTFKPEDWGMKRGTDNEDFMFLNLGPNHPSAHGAFRIILQLDGEEIVDCVPDIGYHHRGAEKMGERQSWHSYIPYTDRIEYLGGCVNEMPYVLAVEKLAGITVPDRVNVIRVMLSELFRINSHLLYISTFIQDVGAMTPVFFAFTDRQKIYDLVEAITGFRMHPAWFRIGGVAHDLPRGWDRLLREFLEWMPKRLDSYEKAALRNTILKGRSQGVAAYGAKEALEWGTTGAGLRATGIDFDVRKWRPYSGYENFDFEVPVGGGVSDCYTRVMLKVEELRQSLRILQQCLDNMPEGPFKADHPLTTPPPKERTLQHIETLITHFLQVSWGPVMPAQESFQMVEATKGINSYYLTSDGSTMSYRTRVRTPSFAHLQQIPSAIRGSLVSDLIVYLGSIDFVMSDVDR | not soluble
MGSDKIHHHHHHMVQNTFSDFDVSGFWDDSAYSIEEYVEETPTDALIDSIEQELGYKLPASYIELMKQHNGGTPVNCCFPVTEETSGTEYHVEISGIMGIGRSKTYSLGGSFGSRFMIDEWGYPDTGIYVCTCPSAGHEMILLDYSICGPKGEPQVFYVDQEREYQKTFLAKDFETFIRGLVHADVYDTSAQDLISTLETFRTGNFSEVLQAYIKKDLSVNFDRVLRNLFTELTTEKGYFALHADELSYLSYDIQFYLLSINRKIKSKEDFVKHYLPMVAMSDAGITTGGYANFFEDWFDEKIKSKEITKGLLSGFLFTEIYKQKLFERIKQYDK | not soluble
MGSDKIHHHHHHMVRGRKIMSLVTDLPAIFDQFSEARQTGFLTVMDLKERGIPLVGTYCTFMPQEIPMAAGAVVVSLCSTSDETIEEAEKDLPRNLCPLIKSSYGFGKTDKCPYFYFSDLVVGETTCDGKKKMYEYMAEFKPVHVMQLPNSVKDDASRALWKAEMLRLQKTVEERFGHEISEDALRDAIALKNRERRALANFYHLGQLNPPALSGSDILKVVYGATFRFDKEALINELDAMTARVRQQWEEGQRLDPRPRILITGCPIGGAAEKVVRAIEENGGWVVGYENCTGAKATEQCVAETGDVYDALADKYLAIGCSCVSPNDQRLKMLSQMVEEYQVDGVVDVILQACHTYAVESLAIKRHVRQQHNIPYIAIETDYSTSDVGQLSTRVAAFIEML | not soluble
